The source of these data is PMC2212354.

Assay [1] has as its target CXCR3, stably expressed on HEK293 cells (human) (UniProt P49682). The assay can be described thus: radioligand binding.
Assay [2] shares this target.

Sequence of UniProt P49682 (P49682 whole entry): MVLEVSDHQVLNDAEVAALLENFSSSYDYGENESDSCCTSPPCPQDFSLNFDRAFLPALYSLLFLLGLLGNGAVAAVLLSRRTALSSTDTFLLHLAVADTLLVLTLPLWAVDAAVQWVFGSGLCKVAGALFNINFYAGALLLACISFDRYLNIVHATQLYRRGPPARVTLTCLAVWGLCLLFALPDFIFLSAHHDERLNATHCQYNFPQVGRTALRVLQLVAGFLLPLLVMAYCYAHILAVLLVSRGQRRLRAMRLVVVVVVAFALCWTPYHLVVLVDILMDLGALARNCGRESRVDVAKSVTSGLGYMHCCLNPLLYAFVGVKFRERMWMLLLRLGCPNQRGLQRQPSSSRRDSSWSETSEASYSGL

Substance “125I-iodinated I-TAC (radiolabeled synthetic mature I-TAC) (from UniProt O14625 22-94) (ligand)” displayed a radiolabeled I-TAC bound (cpm) in assay [1] of 5980 cpm.

The IC50 is the concentration that inhibits the measured activity by half. High values mean lower potency, low ones higher potency. As to “I-TAC (interferon-inducible T cell alpha chemoattractant), chemically synthesized predicted mature polypeptide, unlabeled (from UniProt O14625 22-94) (ligand)”, in assay [1], the IC50 is 1 nM; the KD, high affinity site (Scatchard) worked out at 0.3 nM; the KD, low affinity site (Scatchard) amounted to 36 nM. For the same substance, the EC50 of intracellular calcium mobilization in 300-19 CXCR3 transfectants in assay [2] was 1 nM.

The substance “IFN-γ–induced human monokine (HuMig), recombinant, unlabeled (from UniProt Q07325 23-125) (ligand)” showed an IC50 in assay [1] of 300 nM. In assay [2], the EC50 of intracellular calcium mobilization in 300-19 CXCR3 transfectants was determined as 50 nM and the intracellular calcium mobilized in 300-19 CXCR3 transfectants (maximum) came to 1000 nM.

“IFN-γ–inducible 10-kD protein (IP-10), recombinant, unlabeled (from UniProt P02778 22-98) (ligand)” registered an IC50 in assay [1] of 70 nM. In assay [2], the EC50 of intracellular calcium mobilization in 300-19 CXCR3 transfectants came out at 10 nM and the intracellular calcium mobilized in 300-19 CXCR3 transfectants (maximum) was 1000 nM.
